In patent US20030124132A1 (University of Texas, published 2003):

What was measured:
[1] = system: cancer patients having progressive disease; settings: progressive disease before treatment; cited from earlier work
TNFα = settings: cited from earlier work
bEnd.3 endothelial cells [2] = assay: Viability of endothelial cells exposed to H2O2 (Trypan Blue exclusion); format: cell-based, mouse
Procedure: (§1) Mouse bEnd.3 endothelial cells were seeded at an initial density of 50,000 cells/well. Twenty-fours later cells were incubated with increasing concentrations of H2O2 (from 10 μM to 500 μM) for 1 hour at 37° C. or left untreated. At the end of the incubation, cells were washed 3 times with PBS containing 0.2% gelatin and fixed with 0.25% glutaraldehyde. Identical wells were either stained with anti-PS IgM or trypsinized and evaluated for viability by the Trypan Blue exclusion test. For the anti-PS staining, after blocking with 2% gelatin for 10 min., cells were incubated with 2 μg/ml of anti-PS antibody, followed by detection with anti-mouse IgM-HRP conjugate.

[3] = system: human umbilical vein endothelial cells (HUVEC); settings: cited from earlier work
bEnd.3 endothelial cells [4] = assay: PS surface expression on endothelial cells exposed to H2O2 (anti-PS IgM staining); format: cell-based, mouse
Procedure: as §1

[5] = biological target: I-A^d MHC Class II antigen (mouse) (UniProt P04228); assay: FACS
[6] = biological target: I-A^d MHC Class II antigen (mouse) (UniProt P04228); assay: cell-based or functional assay
[7] = system: tissue factor on HUVEC cells; assay: FACS analysis of tissue factor expression on endothelial cells; format: cell-based, human; settings: TNFα 500 U/ml, LPS 10 μg/ml, VEGF 1 nM, alone or in combination, 6 h
Procedure: To analyze tissue factor expression on the surface of endothelial cells, HUVEC cells were incubated with TNFα (500 U/ml), LPS (10 μg/ml) or vascular endothelial growth factor (VEGF, 1 nM) alone or in combination for 6 h at 37°. Cells were then detached and stained for surface expression of human tissue factor with a sheep-anti-human tissue factor antibody (Haemochrom, Essen, Germany) and an appropriate FITC-conjugated secondary antibody. Fluorescent cells were detected on a flow cytometer (Becton Dickinson, San Jose, Calif.).

[8] = system: L540 Hodgkin tumor blood vessels; assay: Annexin V inhibition of coaguligand-induced thrombosis in vivo; set-up: species or system SCID mice; settings: 100 μg Annexin V alone or 2 hours before 40 μg coaguligand
Procedure: The ability of Annexin V to inhibit coaguligand-induced thrombosis in vivo was examined in L540 Hodgkin-bearing SCID mice.
Four hours after the last injection mice were anesthetized and perfused with heparinized saline. Tumors were removed, fixed with 4% formalin, paraffin-embedded and stained with hematoxylene-eosin. The number of thrombosed and non-thrombosed blood vessels were counted and the percentage of thrombosis was calculated.
Groups of tumor-bearing mice were treated with one of the control or test reagents. […] Identical results were obtained in both mice per group.

[9] = system: IL-1α-stimulated bEnd.3 cells; assay: Chromogenic assay of Factor Xa formation by cell-bound coaguligand, with Annexin V; format: cell-based, mouse; settings: Annexin V 10 μg per ml
Procedure: The ability of Annexin V to affect Factor Xa formation induced by coaguligand was determined by a chromogenic assay. […] Annexin V was added at concentrations ranging from 0.1 to 10 μg/ml and cells were incubated for 30 min. before addition of diluted Proplex T. The amount of Factor Xa generated in the presence or absence of Annexin V was determined. Each treatment was performed in duplicate and repeated at least twice.

[10] = biological target: T1, tissue factor on the surface of stimulated 2F2B mouse endothelial cells (mouse, UniProt P20352 29-294); assay: FACS on 2F2B mouse endothelial cells stimulated with LPS or TNF alpha, detection with sheep anti-human TF antibody; also a cell bound coagulation assay
T1 construct: whole, on cells; also called cell-surface tissue factor; endogenous TF
T1 sequence (looked up): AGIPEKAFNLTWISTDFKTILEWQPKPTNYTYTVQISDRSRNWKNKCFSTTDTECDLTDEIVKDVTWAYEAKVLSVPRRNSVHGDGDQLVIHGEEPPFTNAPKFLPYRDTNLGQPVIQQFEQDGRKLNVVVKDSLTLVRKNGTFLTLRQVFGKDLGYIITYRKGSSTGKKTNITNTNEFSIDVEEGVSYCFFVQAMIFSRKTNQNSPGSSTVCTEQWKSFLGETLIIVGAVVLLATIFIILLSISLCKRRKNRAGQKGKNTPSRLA

[11] = system: A20 lymphoma cells (I-A^d positive), mouse or human plasma; assay: In vitro coagulation assay on A20 cells with capture bispecific antibody B21-2/10H10; format: cell-based; settings: for concentration at which plasma coagulated in 50 seconds: bound via B21-2/10H10 to A20 cells, separate studies per block; for coagulation inducing activity lower than reference: versus monomer / unconjugated form or tTF219
[12] = system: Factor X to Xa conversion on A20 cells; assay: Factor Xa production assay on A20 cells; format: cell-based, mouse; settings: Factors II, VII, IX and X present

Molecule: NC(=O)c1nnn(Cc2cc(Cl)c(C(=O)c3ccc(Cl)cc3)c(Cl)c2)c1N [CAI, carboxyamidotriazole]
- cancer patients with disease stabilization [1]: 49%

Molecule: Cc1ccc2c(=O)c3cccc(CC(=O)O)c3oc2c1C [DMXAA]
- less effective than endotoxin in inducing TNFα (TNFα): 20 fold

Molecule: OO [H2O2]
- cell viability (bEnd.3 endothelial cells [2]; H2O2 higher than 100 μM): 50-60%
- cell viability (bEnd.3 endothelial cells [2]; low levels of H2O2, identical to untreated cells): 95%
- viability ([3]; 15 μM H2O2): 90 to 95%
- viable cells ([3]; 1500 μM H2O2): 0%-50%
- cells with PS at the cell surface (bEnd.3 endothelial cells [4]; H2O2 as low as 20 μM (lower than 100 μM)): about 50%
- cells with PS translocation (bEnd.3 endothelial cells [4]; H2O2 higher than 100 μM, 1 hour): ~90%

Molecule: B21-2 anti-I-A^d antibody
- fold higher affinity than M5/114.15.2 [5]: 5 to 10 fold

Molecule: B21-2/10H10 bispecific antibody
- time for fibrin strands to form after adding mouse plasma to A20 cells [6]: 36 s

Molecule: VEGF
- tissue factor expression on the surface of HUVEC [7]: upregulated tissue factor expression

B1: Annexin V: binds to PS with high affinity (protein, UniProt P08758 2-320, looked up)
Annexin A5: AQVLRGTVTDFPGFDERADAETLRKAMKGLGTDEESILTLLTSRSNAQRQEISAAFKTLFGRDLLDDLKSELTGKFEKLIVALMKPSRLYDAYELKHALKGAGTNEKVLTEIIASRTPEELRAIKQVYEEEYGSSLEDDVVGDTSGYYQRMLVVLLQANRDPDAGIDEAQVEQDAQALFQAGELKWGTDEEKFITIFGTRSVSHLRKVFDKYMTISGFQIEETIDRETSGNLEQLLLAVVKSIRSIPAYLAETLYYAMKGAGTDDHTLIRVMVSRSEIDLFNIRKEFRKNFATSLYSMIKGDTSGDYKKALLLLCGEDD
- effect on tumor thrombosis / morphology [8]: did not alter tumor morphology
- inhibition of factor Xa production [9]: 58%

B2: recombinant, depyrogenated truncated Tissue Factor (amino acids 1-219) of Example X (other, human, UniProt P13726 33-251, looked up)
chain: SGTTNTVAAYNLTWKSTNFKTILEWEPKPVNQVYTVQISTKSGDWKSKCFYTTDTECDLTDEIVKDVKQTYLARVFSYPAGNVESTGSAGEPLYENSPEFTPYLETNLGQPTIQSFEQVGTKVNVTVEDERTLVRRNNTFLSLRDVFGKDLIYTLYYWKSSSSGKKTAKTNTNEFLIDVDKGENYCFSVQAVIPSRTVNRKSTDSPVECMGQEKGEFRE
notes: also called tTF; endotoxin-free tTF
- binding result [10]: no binding

B3: H6-tTF220-cys-C′: tTF219 with Ile-Cys after amino acid 219, (His)6 (protein)
chain: HHHHHHAMALVPRGSGTTNTVAAYNLTWKSTNFKTILEWEPKPVNQVYTVQISTKSGDWKSKCFYTTDTECDLTDEIVKDVKQTYLARVFSYPAGNVESTGSAGEPLYENSPEFTPYLETNLGQPTIQSFEQVGTKVNVTVEDERTLVRRNNTFLSLRDVFGKDLIYTLYYWKSSSSGKKTAKTNTNEFLIDVDKGENYCFSVQAVIPSRTVNRKSTDSPVECMGQEKGEFRE
- concentration at which plasma coagulated in 50 seconds [11]: 0.5 nM

B4: H6-tTF221-cys-C′ dimer: chemically conjugated disulfide dimer of H6-tTF221-cys-C′ (protein)
chain: B3 chain
- concentration at which plasma coagulated in 50 seconds [11]: 4 nM
- coagulation inducing activity lower than reference [11]: 4 fold

B5: tTF220-cys-C′: H6-tTF220-cys-C′ without the (His)6 tag (protein)
chain: GSGTTNTVAAYNLTWKSTNFKTILEWEPKPVNQVYTVQISTKSGDWKSKCFYTTDTECDLTDEIVKDVKQTYLARVFSYPAGNVESTGSAGEPLYENSPEFTPYLETNLGQPTIQSFEQVGTKVNVTVEDERTLVRRNNTFLSLRDVFGKDLIYTLYYWKSSSSGKKTAKTNTNEFLIDVDKGENYCFSVQAVIPSRTVNRKSTDSPVECMGQEKGEFREIC
- concentration at which plasma coagulated in 50 seconds [11]: 0.5 nM

B6: IgG-H6-N′-cys-tTF219: one molecule of IgG linked via SMPT to one or two molecules of tTF (conjugate)
chain: HHHHHHAMALVPRGSCGTTNTVAAYNLTWKSTNFKTILEWEPKPVNQVYTVQISTKSGDWKSKCFYTTDTECDLTDEIVKDVKQTYLARVFSYPAGNVESTGSAGEPLYENSPEFTPYLETNLGQPTIQSFEQVGTKVNVTVEDERTLVRRNNTFLSLRDVFGKDLIYTLYYWKSSSSGKKTAKTNTNEFLIDVDKGENYCFSVQAVIPSRTVNRKSTDSPVECMGQEKGEFRE
modifications: left off: large carriers
- less active than H6-N′-cys-tTF219 at inducing Xa formation [12]: 2 fold
- concentration at which plasma coagulated in 50 seconds [11]: 5 nM
- coagulation inducing activity lower than reference [11]: 5 fold

B7: Fab′-H6-N′-cys-tTF219: Fab′ fragment disulfide-linked to H6-N′-cys-tTF219 (conjugate)
chain: B6 chain
modifications: left off: another chain or arm of the molecule; large carriers
- activity at inducing Xa formation relative to H6-N′-cys-tTF219 [12]: as active as H6-N′-cys-tTF219 itself

B8: tTF221-cys-C′: H6-tTF221-cys-C′ without the (His)6 tag (protein)
chain: GSGTTNTVAAYNLTWKSTNFKTILEWEPKPVNQVYTVQISTKSGDWKSKCFYTTDTECDLTDEIVKDVKQTYLARVFSYPAGNVESTGSAGEPLYENSPEFTPYLETNLGQPTIQSFEQVGTKVNVTVEDERTLVRRNNTFLSLRDVFGKDLIYTLYYWKSSSSGKKTAKTNTNEFLIDVDKGENYCFSVQAVIPSRTVNRKSTDSPVECMGQEKGEFREIFC
- concentration at which plasma coagulated in 50 seconds [11]: 0.5 nM

B9: H6-tTF219-cys-C′: tTF with (His)6 and a Cys after amino acid 219 (protein)
chain: HHHHHHAMALVPRGSGTTNTVAAYNLTWKSTNFKTILEWEPKPVNQVYTVQISTKSGDWKSKCFYTTDTECDLTDEIVKVKQTYLARVFSYPAGNVESTGSAGEPLYENSPEFTPYLETNLGQPTIQSFEQVGTKVNVTVEDRTLVRRNNTFLSLRDVFGKDLIYTLYYWKSSSSGKKTAKTNTNEFLIDVDKGENYCFSVQAVIPSRTVNRKSTDSPVECMGQEKGEFREC
- concentration at which plasma coagulated in 50 seconds [11]: 3 nM
